Experiments:
[1] = target: T1, hu-M-IL1RAP construct, positions S21-T367 (extracellular domain of the membrane form of human IL1RAP) (human, UniProt Q9NPH3 21-367); assay: SPR, Fab analyte, 25 C
T1 construct: Biotinylated when captured on the Biacore chip
T1 sequence: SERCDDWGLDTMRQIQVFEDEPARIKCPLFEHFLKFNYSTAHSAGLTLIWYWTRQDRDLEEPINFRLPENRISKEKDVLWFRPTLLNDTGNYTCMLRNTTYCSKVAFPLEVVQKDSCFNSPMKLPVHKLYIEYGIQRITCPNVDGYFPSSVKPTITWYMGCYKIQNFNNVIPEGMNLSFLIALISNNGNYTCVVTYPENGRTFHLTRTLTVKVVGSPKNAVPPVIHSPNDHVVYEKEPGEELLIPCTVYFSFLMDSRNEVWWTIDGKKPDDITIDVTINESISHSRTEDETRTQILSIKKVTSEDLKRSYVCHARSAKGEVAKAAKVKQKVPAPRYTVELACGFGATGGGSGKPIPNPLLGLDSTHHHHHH

[2] = target: T1, hu-M-IL1RAP construct, positions …; assay: SPR, Fab against parent Fab
[3] = target: T1, hu-M-IL1RAP construct, positions …; assay: phage display selection of affinity maturation libraries + NGS; enrichment of the mutation Y30W (VL)
[4] = target: T1, hu-M-IL1RAP construct, positions …; assay: phage display selection of affinity maturation libraries + NGS; enrichment of the mutation L33G (VL)
[5] = target: T1, hu-M-IL1RAP construct, positions …; assay: SPR, Fab analyte
[6] = target: T1, hu-M-IL1RAP construct, positions …; assay: SPR, Fab analyte, 37 C
[7] = target: T2, human IL1RAP (hu-IL1RAP) on human cells (human, UniProt Q9NPH3 21-570); assay: cell-based or functional assay
T2 sequence: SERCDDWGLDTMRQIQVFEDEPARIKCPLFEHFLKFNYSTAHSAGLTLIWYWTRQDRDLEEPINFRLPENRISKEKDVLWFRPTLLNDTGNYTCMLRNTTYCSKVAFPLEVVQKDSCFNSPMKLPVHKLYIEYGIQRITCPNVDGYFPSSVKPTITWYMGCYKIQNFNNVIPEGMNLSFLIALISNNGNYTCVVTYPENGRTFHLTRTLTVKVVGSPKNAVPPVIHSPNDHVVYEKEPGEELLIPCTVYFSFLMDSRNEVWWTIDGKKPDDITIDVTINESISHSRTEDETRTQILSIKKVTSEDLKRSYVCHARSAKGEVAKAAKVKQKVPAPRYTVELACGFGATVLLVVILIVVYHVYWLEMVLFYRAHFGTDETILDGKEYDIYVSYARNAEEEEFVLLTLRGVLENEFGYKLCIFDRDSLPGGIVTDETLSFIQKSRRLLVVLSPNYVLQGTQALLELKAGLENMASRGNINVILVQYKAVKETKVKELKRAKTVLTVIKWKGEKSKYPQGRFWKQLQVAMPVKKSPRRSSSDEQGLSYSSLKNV

[8] = target: T1, hu-M-IL1RAP construct, positions …; assay: SPR, against YKD
[9] = target: T3, cyno-M-IL1RAP construct, positions S21-T367 (cynomolgus monkey, UniProt P59822 21-367 (rhesus entry)); assay: SPR, against YKD
T3 construct: Biotinylated when captured on the Biacore chip; also called cy-M-IL1RAP
T3 sequence: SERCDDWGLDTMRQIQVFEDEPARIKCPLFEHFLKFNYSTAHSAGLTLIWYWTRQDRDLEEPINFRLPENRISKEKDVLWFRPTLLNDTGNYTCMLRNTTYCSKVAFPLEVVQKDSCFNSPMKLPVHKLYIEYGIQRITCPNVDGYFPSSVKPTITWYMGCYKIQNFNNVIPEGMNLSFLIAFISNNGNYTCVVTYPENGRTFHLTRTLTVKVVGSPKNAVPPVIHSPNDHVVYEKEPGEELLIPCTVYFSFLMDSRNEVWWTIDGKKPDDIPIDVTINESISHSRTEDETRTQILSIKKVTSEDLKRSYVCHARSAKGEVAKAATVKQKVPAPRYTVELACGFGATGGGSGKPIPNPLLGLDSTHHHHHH

[10] = target: T2, human IL1RAP (hu-IL1RAP) on human cells; assay: cell-based or functional assay; remark: listed apart in the source
[11] = target: T1, hu-M-IL1RAP construct, positions …; assay: SPR, IgG analyte (apparent), pH 7.4, 37 C
[12] = target: T3, cyno-M-IL1RAP construct, positions …; assay: SPR, IgG analyte (apparent), pH 7.4, 37 C
[13] = target: T4, biotinylated human FcRn (Acro biosystems, catalogue number FCN-H52W7) (human, UniProt P55899 24-297; P61769 21-119, biotinylated); assay: SPR steady state, FcRn captured, 25 C, pH 6.0; pH 6.0
T4 construct: Bought reagent; also called hu-FcRn

[14] = target: T5, biotinylated cyno FcRn (Acro biosystems, catalogue number FCM-C5284) (cynomolgus monkey, UniProt Q8SPV9 24-297; Q8SPW0 21-119, limits assumed, biotinylated); assay: as above
T5 construct: Bought reagent

[15] = target: T1, hu-M-IL1RAP construct, positions …; assay: SPR, against YIS
[16] = target: T3, cyno-M-IL1RAP construct, positions …; assay: SPR, against YIS

T4 sequence (P55899 24-297 limits assumed, chain 1 of 2): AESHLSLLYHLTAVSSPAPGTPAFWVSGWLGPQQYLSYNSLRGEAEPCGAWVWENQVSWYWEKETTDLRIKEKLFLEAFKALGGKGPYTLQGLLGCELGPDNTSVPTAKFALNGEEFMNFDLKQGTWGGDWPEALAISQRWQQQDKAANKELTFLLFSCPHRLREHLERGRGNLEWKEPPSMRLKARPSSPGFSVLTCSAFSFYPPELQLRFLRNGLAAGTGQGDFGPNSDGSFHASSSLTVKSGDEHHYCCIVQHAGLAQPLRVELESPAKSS
T4 sequence (P61769 21-119 limits assumed, chain 2 of 2): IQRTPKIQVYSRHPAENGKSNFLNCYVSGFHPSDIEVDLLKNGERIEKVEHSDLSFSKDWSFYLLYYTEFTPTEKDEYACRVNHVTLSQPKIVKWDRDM

B1: K1 Fab (VL Y30W) (Fab, V domains shown)
VH: EVQLVESGGGLVQPGGSLRLSCAASGFTFSNYAMSWVRQAPGKGLEWVATVTEGGDYNYYLDDVKGRFTISRDNAKNSLYLQMNSLRAEDTAVYYCARDRWPYFFDYWGQGTLVTVSS
VL: DIQMTQSPSSLSASVGDRVTITCRASENIWSNLAWYQQKPGKSPKLLVYGAKNLADGVPSRFSGSGSGTDYTLTISSLQPEDFATYYCQHFWTTPRTFGGGTKVEIK
notes: Fab with 8xHis tag
Kd [1]: 0.0372 nM
koff [1]: 0.00018 s⁻¹
kon [1]: 4.82e+06 M⁻¹ s⁻¹
Fold Improvement in KD @ 25° C. [2]: 9.06 fold
Enrichment ratio (at the highest selection stringency) [3]: 3.52 ratio

B2: K2 Fab (VL L33G) (Fab, V domains shown)
VH: EVQLVESGGGLVQPGGSLRLSCAASGFTFSNYAMSWVRQAPGKGLEWVATVTEGGDYNYYLDDVKGRFTISRDNAKNSLYLQMNSLRAEDTAVYYCARDRWPYFFDYWGQGTLVTVSS
VL: DIQMTQSPSSLSASVGDRVTITCRASENIYSNGAWYQQKPGKSPKLLVYGAKNLADGVPSRFSGSGSGTDYTLTISSLQPEDFATYYCQHFWTTPRTFGGGTKVEIK
notes: Fab with 8xHis tag
Kd [1]: 0.0346 nM
koff [1]: 0.000158 s⁻¹
kon [1]: 4.57e+06 M⁻¹ s⁻¹
Fold Improvement in KD @ 25° C. [2]: 9.74 fold
Enrichment ratio (at the highest selection stringency) [4]: 1.71 ratio

B3: K13 Fab (VL A51Y/W92I) (Fab, V domains shown)
VH: EVQLVESGGGLVQPGGSLRLSCAASGFTFSNYAMSWVRQAPGKGLEWVATVTEGGDYNYYLDDVKGRFTISRDNAKNSLYLQMNSLRAEDTAVYYCARDRWPYFFDYWGQGTLVTVSS
VL: DIQMTQSPSSLSASVGDRVTITCRASENIYSNLAWYQQKPGKSPKLLVYGYKNLADGVPSRFSGSGSGTDYTLTISSLQPEDFATYYCQHFITTPRTFGGGTKVEIK
notes: Fab with 8xHis tag
fold improvement of affinity over the parental Fab [5]: 9 fold
Kd [1]: 0.00709 nM
koff [1]: 4.36e-05 s⁻¹
kon [1]: 6.15e+06 M⁻¹ s⁻¹
Kd [6]: 0.0293 nM
koff [6]: 0.000117 s⁻¹
kon [6]: 4.01e+06 M⁻¹ s⁻¹
HEK-Blue, IL-1β, % inhibition at 100 nM (Fab) [7]: 100%
HEK-Blue, IL-1β, IC50 (Fab) [7]: 940 pM
HEK-Blue, IL-33, % inhibition at 100 nM (Fab) [7]: 98%
HEK-Blue, IL-33, IC50 (Fab) [7]: 3.17 nM
HEK-Blue, IL-36α, % inhibition at 100 nM (Fab) [7]: 100%
HEK-Blue, IL-36α, IC50 (Fab) [7]: 884 pM

B4: h11C5 variant YKD/YTE (antibody, human IgG1, kappa, N297G)
heavy: EVQLVESGGGLVQPGGSLRLSCAASGFTFSNYAMSWVRQAPGKGLEWVATVTEGGDYNYYLDDVKGRFTISRDNAKNSLYLQMNSLRAEDTAVYYCARDDWPYFFDYWGQGTLVTVSSASTKGPSVFPLAPSSKSTSGGTAALGCLVKDYFPEPVTVSWNSGALTSGVHTFPAVLQSSGLYSLSSVVTVPSSSLGTQTYICNVNHKPSNTKVDKKVEPKSCDKTHTCPPCPAPELLGGPSVFLFPPKPKDTLYITREPEVTCVVVDVSHEDPEVKFNWYVDGVEVHNAKTKPREEQYGSTYRVVSVLTVLHQDWLNGKEYKCKVSNKALPAPIEKTISKAKGQPREPQVYTLPPSRDELTKNQVSLTCLVKGFYPSDIAVEWESNGQPENNYKTTPPVLDSDGSFFLYSKLTVDKSRWQQGNVFSCSVMHEALHNHYTQKSLSLSPGK
light: DIQMTQSPSSLSASVGDRVTITCRASENIYSNLAWYQQKPGKSPKLLVYGYKNLADGVPSRFSGSGSGTDYTLTISSLQPEDFATYYCQHFKTTPRTFGGGTKVEIKRTVAAPSVFIFPPSDEQLKSGTASVVCLLNNFYPREAKVQWKVDNALQSGNSQESVTEQDSKDSTYSLSSTLTLSKADYEKHKVYACEVTHQGLSSPVTKSFNRGEC
notes: YKD with M252Y/S254T/T256E (Eu index) in the Fc; N297G; also called 11C5-YKD/YTE; YKDNTE
KD YTE/KD Parental [8]: 0.84 ratio
KD YTE/KD Parental [9]: 0.98 ratio
CD4+ T cells, IL-33+IL-12 stimulated IFN-γ, IC50 [10]: 44 nM
HEK-Blue, IL-1β, IC50 [10]: 0.51 nM
HEK-Blue, IL-33, % inhibition at 100 nM [10]: 97%
HEK-Blue, IL-33, IC50 [10]: 3.3 nM
HEK-Blue, IL-36β, IC50 [10]: 0.9 nM
HEKn, IL-36β stimulated IL-8, IC50 [10]: 1.16 nM
NK cells, IL-33+IL-12 stimulated IFN-γ, IC50 [10]: 1.32 nM
PHLF, IL-1α stimulated IL-8, IC50 [10]: 6.47 nM
PHLF, IL-36β stimulated IL-8, IC50 [10]: 0.5 nM
basophils, IL-33 stimulated p38 phosphorylation, IC50 [10]: 41 nM
monocytes, IL-1β stimulated IL-6, IC50 [10]: 158 pM
Kd [11]: 0.0254 nM
koff [11]: 5.12e-05 s⁻¹
kon [11]: 2.02e+06 M⁻¹ s⁻¹
Kd [12]: 0.0219 nM
koff [12]: 4.9e-05 s⁻¹
kon [12]: 2.24e+06 M⁻¹ s⁻¹
Kd [13]: 130 nM
Kd [14]: 21.4 nM

B5: h11C5 variant YIS/YTE (antibody, human IgG1, kappa, N297G)
heavy: EVQLVESGGGLVQPGGSLRLSCAASGFTFSNYAMSWVRQAPGKGLEWVATSTEGGDYNYYLDDVKGRFTISRDNAKNSLYLQMNSLRAEDTAVYYCARDRWPYFFDYWGQGTLVTVSSASTKGPSVFPLAPSSKSTSGGTAALGCLVKDYFPEPVTVSWNSGALTSGVHTFPAVLQSSGLYSLSSVVTVPSSSLGTQTYICNVNHKPSNTKVDKKVEPKSCDKTHTCPPCPAPELLGGPSVFLFPPKPKDTLYITREPEVTCVVVDVSHEDPEVKFNWYVDGVEVHNAKTKPREEQYGSTYRVVSVLTVLHQDWLNGKEYKCKVSNKALPAPIEKTISKAKGQPREPQVYTLPPSRDELTKNQVSLTCLVKGFYPSDIAVEWESNGQPENNYKTTPPVLDSDGSFFLYSKLTVDKSRWQQGNVFSCSVMHEALHNHYTQKSLSLSPGK
light: DIQMTQSPSSLSASVGDRVTITCRASENIYSNLAWYQQKPGKSPKLLVYGYKNLADGVPSRFSGSGSGTDYTLTISSLQPEDFATYYCQHFITTPRTFGGGTKVEIKRTVAAPSVFIFPPSDEQLKSGTASVVCLLNNFYPREAKVQWKVDNALQSGNSQESVTEQDSKDSTYSLSSTLTLSKADYEKHKVYACEVTHQGLSSPVTKSFNRGEC
notes: YIS with M252Y/S254T/T256E (Eu index) in the Fc; N297G; also called 11C5-YIS/YTE
KD YTE/KD Parental [15]: 0.99 ratio
KD YTE/KD Parental [16]: 0.69 ratio
Kd [11]: 0.013 nM
koff [11]: 4.43e-05 s⁻¹
kon [11]: 3.42e+06 M⁻¹ s⁻¹
Kd [12]: 0.00798 nM
koff [12]: 3.07e-05 s⁻¹
kon [12]: 3.85e+06 M⁻¹ s⁻¹

— patent US20260015426A1 (23ANDME, published 2026)
